# Experimental data as given in the supplement of paper PMC9876800.
# System: peptide library, one residue held at a place counted from the S/T acceptor
# Experiment: relative phosphorylation of the sub-library (ratio to the mean residue at this position); human; higher = residue favoured
# Details: W fixed; at +4
# How it was run: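 Relative sub-library phosphorylation is the ratio of each sub-library's signal to the mean residue at that position. The signal came from phosphorimaging of spots on streptavidin membranes, quantified by densitometry, after purified recombinant kinases reacted with biotinylated degenerate peptide sub-libraries in 384-well plates. Reactions held 50 μM peptide and 50 μM ATP spiked with γ-32P-ATP for 90 min under kinase-specific conditions.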
# MELK, construct: aa1-340, sequence (Q14680 1-340, looked up): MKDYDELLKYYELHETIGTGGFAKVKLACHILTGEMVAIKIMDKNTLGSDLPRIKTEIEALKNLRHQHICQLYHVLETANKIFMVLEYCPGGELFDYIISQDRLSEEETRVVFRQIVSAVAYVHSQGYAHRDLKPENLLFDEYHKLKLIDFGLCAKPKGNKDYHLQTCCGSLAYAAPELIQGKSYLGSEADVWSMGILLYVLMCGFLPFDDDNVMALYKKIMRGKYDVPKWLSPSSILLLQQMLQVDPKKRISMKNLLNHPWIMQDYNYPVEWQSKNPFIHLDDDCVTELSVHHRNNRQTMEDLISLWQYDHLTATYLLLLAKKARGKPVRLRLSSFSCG
# TTK, construct: Full length, sequence (P33981 whole entry, looked up): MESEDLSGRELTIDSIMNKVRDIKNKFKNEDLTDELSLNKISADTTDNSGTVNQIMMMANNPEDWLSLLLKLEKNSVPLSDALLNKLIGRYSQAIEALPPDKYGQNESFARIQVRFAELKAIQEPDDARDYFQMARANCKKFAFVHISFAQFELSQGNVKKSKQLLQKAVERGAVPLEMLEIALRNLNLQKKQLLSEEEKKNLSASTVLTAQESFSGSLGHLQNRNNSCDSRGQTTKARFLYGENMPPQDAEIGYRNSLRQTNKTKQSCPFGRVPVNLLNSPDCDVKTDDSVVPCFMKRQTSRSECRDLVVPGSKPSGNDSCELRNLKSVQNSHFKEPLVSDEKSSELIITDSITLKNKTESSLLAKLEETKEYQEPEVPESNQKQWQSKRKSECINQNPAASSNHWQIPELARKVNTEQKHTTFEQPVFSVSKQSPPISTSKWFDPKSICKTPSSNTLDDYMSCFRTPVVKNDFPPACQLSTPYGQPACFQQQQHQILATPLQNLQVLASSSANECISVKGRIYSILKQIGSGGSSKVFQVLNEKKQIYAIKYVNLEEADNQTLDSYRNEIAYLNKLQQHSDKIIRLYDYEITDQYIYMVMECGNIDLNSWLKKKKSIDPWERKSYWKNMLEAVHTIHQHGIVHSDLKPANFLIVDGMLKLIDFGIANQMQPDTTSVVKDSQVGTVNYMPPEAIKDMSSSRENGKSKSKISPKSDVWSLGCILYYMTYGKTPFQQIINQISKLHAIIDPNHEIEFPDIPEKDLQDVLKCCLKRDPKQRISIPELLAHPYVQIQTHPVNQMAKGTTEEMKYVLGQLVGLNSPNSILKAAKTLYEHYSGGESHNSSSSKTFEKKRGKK
# MASTL, construct: Full length, sequence (Q96GX5 whole entry, looked up): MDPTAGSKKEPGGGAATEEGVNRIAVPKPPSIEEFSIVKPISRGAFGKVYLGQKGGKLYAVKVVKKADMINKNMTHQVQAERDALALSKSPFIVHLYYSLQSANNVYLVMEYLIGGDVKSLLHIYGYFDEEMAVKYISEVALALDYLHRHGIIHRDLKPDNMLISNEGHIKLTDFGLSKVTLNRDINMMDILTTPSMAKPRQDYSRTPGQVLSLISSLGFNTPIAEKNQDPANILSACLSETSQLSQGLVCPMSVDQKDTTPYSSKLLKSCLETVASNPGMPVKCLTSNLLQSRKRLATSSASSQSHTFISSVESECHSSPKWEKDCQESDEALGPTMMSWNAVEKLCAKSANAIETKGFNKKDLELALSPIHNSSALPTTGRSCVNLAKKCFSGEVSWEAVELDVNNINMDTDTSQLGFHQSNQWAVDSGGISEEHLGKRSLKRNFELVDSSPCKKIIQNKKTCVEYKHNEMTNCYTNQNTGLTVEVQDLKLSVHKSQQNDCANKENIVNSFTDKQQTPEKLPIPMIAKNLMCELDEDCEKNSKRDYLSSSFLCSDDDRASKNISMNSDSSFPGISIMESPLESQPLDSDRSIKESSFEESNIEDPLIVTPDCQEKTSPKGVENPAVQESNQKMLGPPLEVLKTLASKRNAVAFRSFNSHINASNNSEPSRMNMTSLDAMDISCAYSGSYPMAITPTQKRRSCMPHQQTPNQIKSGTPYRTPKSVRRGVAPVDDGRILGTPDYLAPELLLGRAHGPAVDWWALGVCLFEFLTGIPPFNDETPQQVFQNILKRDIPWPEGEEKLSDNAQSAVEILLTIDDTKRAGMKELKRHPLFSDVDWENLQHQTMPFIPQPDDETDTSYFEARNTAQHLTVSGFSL
# GRK5, construct: Full length, sequence (P34947 whole entry, looked up): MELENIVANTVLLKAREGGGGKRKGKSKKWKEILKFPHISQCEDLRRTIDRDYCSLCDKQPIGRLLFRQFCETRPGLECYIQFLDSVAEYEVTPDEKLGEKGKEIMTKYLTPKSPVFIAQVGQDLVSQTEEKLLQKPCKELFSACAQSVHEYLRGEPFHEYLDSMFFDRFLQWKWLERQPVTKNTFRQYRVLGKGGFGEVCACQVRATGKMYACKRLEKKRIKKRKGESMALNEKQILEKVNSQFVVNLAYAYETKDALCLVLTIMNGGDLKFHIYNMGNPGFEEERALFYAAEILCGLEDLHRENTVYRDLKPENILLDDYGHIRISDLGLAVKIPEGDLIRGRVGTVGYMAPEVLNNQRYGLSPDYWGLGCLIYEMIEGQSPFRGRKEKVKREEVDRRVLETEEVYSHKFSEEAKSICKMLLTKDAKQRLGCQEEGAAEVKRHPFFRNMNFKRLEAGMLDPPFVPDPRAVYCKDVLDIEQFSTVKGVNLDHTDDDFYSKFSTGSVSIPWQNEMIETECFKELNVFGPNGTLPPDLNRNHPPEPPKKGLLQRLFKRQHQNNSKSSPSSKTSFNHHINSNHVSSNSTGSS
# RPS6KA6, construct: Full length, sequence (Q9UK32 whole entry, looked up): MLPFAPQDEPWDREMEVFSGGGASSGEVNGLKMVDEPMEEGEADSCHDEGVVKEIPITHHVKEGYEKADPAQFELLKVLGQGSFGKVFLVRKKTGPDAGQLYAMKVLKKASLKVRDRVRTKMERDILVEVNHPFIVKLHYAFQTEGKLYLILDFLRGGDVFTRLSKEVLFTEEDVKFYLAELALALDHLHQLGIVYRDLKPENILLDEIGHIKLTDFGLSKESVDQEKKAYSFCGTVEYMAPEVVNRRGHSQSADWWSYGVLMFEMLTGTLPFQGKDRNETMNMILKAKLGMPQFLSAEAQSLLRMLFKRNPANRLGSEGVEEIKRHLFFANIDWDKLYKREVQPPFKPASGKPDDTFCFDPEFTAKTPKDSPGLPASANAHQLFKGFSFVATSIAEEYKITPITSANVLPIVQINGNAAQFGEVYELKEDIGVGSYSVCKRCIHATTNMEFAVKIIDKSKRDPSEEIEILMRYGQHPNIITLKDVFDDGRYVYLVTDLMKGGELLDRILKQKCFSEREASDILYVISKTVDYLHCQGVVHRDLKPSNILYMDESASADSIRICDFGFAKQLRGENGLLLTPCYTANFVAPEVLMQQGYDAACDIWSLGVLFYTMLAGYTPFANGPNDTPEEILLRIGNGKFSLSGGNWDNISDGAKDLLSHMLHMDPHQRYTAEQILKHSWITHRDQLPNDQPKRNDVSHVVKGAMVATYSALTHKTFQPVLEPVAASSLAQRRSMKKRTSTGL
# PAK3, construct: Full length, sequence (O75914 whole entry, looked up): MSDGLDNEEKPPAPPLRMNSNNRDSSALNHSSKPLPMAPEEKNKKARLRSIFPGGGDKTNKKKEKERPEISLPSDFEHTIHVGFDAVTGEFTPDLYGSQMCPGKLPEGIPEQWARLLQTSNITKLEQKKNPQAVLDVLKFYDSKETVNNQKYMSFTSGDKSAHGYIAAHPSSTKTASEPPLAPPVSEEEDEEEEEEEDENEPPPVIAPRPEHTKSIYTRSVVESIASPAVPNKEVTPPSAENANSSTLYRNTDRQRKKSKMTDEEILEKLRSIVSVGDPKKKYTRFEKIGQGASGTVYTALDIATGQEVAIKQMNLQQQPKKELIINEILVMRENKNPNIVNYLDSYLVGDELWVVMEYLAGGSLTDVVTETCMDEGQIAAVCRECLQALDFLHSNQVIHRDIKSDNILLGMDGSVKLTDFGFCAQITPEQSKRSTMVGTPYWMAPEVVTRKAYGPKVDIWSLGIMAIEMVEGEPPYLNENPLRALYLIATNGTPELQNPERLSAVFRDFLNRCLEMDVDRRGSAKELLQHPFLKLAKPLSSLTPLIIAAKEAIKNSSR
# PRPF4B, construct: aa519-end, sequence (Q13523 519-1007, looked up): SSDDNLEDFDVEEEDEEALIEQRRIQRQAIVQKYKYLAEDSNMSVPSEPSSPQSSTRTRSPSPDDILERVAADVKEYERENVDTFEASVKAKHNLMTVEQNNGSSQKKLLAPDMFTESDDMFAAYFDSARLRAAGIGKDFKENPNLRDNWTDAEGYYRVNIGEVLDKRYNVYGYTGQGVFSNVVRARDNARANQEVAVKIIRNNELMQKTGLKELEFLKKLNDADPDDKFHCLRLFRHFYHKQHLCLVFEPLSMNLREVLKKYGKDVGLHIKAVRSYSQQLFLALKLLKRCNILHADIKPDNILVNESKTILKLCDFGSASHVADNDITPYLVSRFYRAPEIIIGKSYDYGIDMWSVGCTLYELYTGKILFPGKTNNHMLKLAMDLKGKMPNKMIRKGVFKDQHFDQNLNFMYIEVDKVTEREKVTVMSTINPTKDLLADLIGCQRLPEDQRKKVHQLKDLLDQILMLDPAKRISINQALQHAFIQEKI
# CLK3, construct: Full length, sequence (P49761 whole entry, looked up): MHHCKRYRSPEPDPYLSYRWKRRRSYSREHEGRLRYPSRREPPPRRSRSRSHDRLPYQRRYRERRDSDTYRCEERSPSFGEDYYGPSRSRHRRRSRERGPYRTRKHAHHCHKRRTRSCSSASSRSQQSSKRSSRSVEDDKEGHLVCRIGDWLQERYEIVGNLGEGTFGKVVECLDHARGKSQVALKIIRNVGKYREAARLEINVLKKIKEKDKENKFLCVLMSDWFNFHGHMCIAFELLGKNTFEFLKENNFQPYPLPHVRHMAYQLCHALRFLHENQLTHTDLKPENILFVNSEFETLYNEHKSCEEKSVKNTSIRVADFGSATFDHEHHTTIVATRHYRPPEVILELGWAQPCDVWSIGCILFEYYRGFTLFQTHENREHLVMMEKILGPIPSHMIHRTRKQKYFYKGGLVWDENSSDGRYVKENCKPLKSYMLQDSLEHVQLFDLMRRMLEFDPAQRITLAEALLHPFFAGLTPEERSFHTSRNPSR
row,Substance,relative phosphorylation
1,"PRPF4B, construct: aa519-end (from UniProt Q13523)",1.31

# Same assay, conditions: W fixed; at -1
row,Substance,relative phosphorylation
1,"PAK3, construct: Full length (from UniProt O75914)",0.976
2,"MASTL, construct: Full length (from UniProt Q96GX5)",0.913
3,"MELK, construct: aa1-340 (from UniProt Q14680)",0.601
4,"CLK3, construct: Full length (from UniProt P49761)",0.37
5,"RPS6KA6, construct: Full length (from UniProt Q9UK32)",0.468
6,"GRK5, construct: Full length (from UniProt P34947)",0.933
7,"TTK, construct: Full length (from UniProt P33981)",0.766
8,"PRPF4B, construct: aa519-end (from UniProt Q13523)",1.01

# Same assay, conditions: W fixed; at -2
row,Substance,relative phosphorylation
1,"PAK3, construct: Full length (from UniProt O75914)",0.423
2,"MASTL, construct: Full length (from UniProt Q96GX5)",1.82
3,"MELK, construct: aa1-340 (from UniProt Q14680)",1.15
4,"CLK3, construct: Full length (from UniProt P49761)",0.39
5,"RPS6KA6, construct: Full length (from UniProt Q9UK32)",0.27
6,"GRK5, construct: Full length (from UniProt P34947)",2.08
7,"TTK, construct: Full length (from UniProt P33981)",0.529
8,"PRPF4B, construct: aa519-end (from UniProt Q13523)",2.09

# Same assay, conditions: W fixed; at -3
row,Substance,relative phosphorylation
1,"PAK3, construct: Full length (from UniProt O75914)",0.907
2,"MASTL, construct: Full length (from UniProt Q96GX5)",1.23
3,"MELK, construct: aa1-340 (from UniProt Q14680)",0.676
4,"CLK3, construct: Full length (from UniProt P49761)",0.457
5,"RPS6KA6, construct: Full length (from UniProt Q9UK32)",0.286
6,"GRK5, construct: Full length (from UniProt P34947)",1.13
7,"TTK, construct: Full length (from UniProt P33981)",0.66
8,"PRPF4B, construct: aa519-end (from UniProt Q13523)",0.512

# Same assay, conditions: W fixed; at -4
row,Substance,relative phosphorylation
1,"PAK3, construct: Full length (from UniProt O75914)",0.901
2,"MASTL, construct: Full length (from UniProt Q96GX5)",1.35
3,"MELK, construct: aa1-340 (from UniProt Q14680)",1.1
4,"CLK3, construct: Full length (from UniProt P49761)",0.879
5,"RPS6KA6, construct: Full length (from UniProt Q9UK32)",0.681
6,"GRK5, construct: Full length (from UniProt P34947)",1.23
7,"TTK, construct: Full length (from UniProt P33981)",0.964
8,"PRPF4B, construct: aa519-end (from UniProt Q13523)",1.04

# Same assay, conditions: W fixed; at -5
row,Substance,relative phosphorylation
1,"PAK3, construct: Full length (from UniProt O75914)",0.812
2,"MASTL, construct: Full length (from UniProt Q96GX5)",1.27
3,"MELK, construct: aa1-340 (from UniProt Q14680)",0.766
4,"CLK3, construct: Full length (from UniProt P49761)",1.07
5,"RPS6KA6, construct: Full length (from UniProt Q9UK32)",0.705
6,"GRK5, construct: Full length (from UniProt P34947)",1.32
7,"TTK, construct: Full length (from UniProt P33981)",0.984
8,"PRPF4B, construct: aa519-end (from UniProt Q13523)",1

# Same assay, conditions: Y fixed; at +1
row,Substance,relative phosphorylation
1,"PAK3, construct: Full length (from UniProt O75914)",1.3
2,"MASTL, construct: Full length (from UniProt Q96GX5)",1.01
3,"MELK, construct: aa1-340 (from UniProt Q14680)",1.22
4,"CLK3, construct: Full length (from UniProt P49761)",0.368
5,"RPS6KA6, construct: Full length (from UniProt Q9UK32)",0.948
6,"GRK5, construct: Full length (from UniProt P34947)",0.898
7,"TTK, construct: Full length (from UniProt P33981)",0.659
8,"PRPF4B, construct: aa519-end (from UniProt Q13523)",0.612

# Same assay, conditions: Y fixed; at +2
row,Substance,relative phosphorylation
1,"PAK3, construct: Full length (from UniProt O75914)",2.44
2,"MASTL, construct: Full length (from UniProt Q96GX5)",1.9
3,"MELK, construct: aa1-340 (from UniProt Q14680)",0.935
4,"CLK3, construct: Full length (from UniProt P49761)",0.517
5,"RPS6KA6, construct: Full length (from UniProt Q9UK32)",2.34
6,"GRK5, construct: Full length (from UniProt P34947)",1.03
7,"TTK, construct: Full length (from UniProt P33981)",0.971
8,"PRPF4B, construct: aa519-end (from UniProt Q13523)",1.16

# Same assay, conditions: Y fixed; at +3
row,Substance,relative phosphorylation
1,"PAK3, construct: Full length (from UniProt O75914)",1.3
2,"MASTL, construct: Full length (from UniProt Q96GX5)",1.5
3,"MELK, construct: aa1-340 (from UniProt Q14680)",1
4,"CLK3, construct: Full length (from UniProt P49761)",0.439
5,"RPS6KA6, construct: Full length (from UniProt Q9UK32)",1.07
6,"GRK5, construct: Full length (from UniProt P34947)",1.06
7,"TTK, construct: Full length (from UniProt P33981)",0.984
8,"PRPF4B, construct: aa519-end (from UniProt Q13523)",0.825

# Same assay, conditions: Y fixed; at +4
row,Substance,relative phosphorylation
1,"PAK3, construct: Full length (from UniProt O75914)",0.753
2,"MASTL, construct: Full length (from UniProt Q96GX5)",1.18
3,"MELK, construct: aa1-340 (from UniProt Q14680)",0.673
4,"CLK3, construct: Full length (from UniProt P49761)",0.649
5,"RPS6KA6, construct: Full length (from UniProt Q9UK32)",0.81
6,"GRK5, construct: Full length (from UniProt P34947)",0.982
7,"TTK, construct: Full length (from UniProt P33981)",1.12
8,"PRPF4B, construct: aa519-end (from UniProt Q13523)",1

# Same assay, conditions: Y fixed; at -1
row,Substance,relative phosphorylation
1,"PAK3, construct: Full length (from UniProt O75914)",1.16
2,"MASTL, construct: Full length (from UniProt Q96GX5)",1.1
3,"MELK, construct: aa1-340 (from UniProt Q14680)",1.09
4,"CLK3, construct: Full length (from UniProt P49761)",0.348
5,"RPS6KA6, construct: Full length (from UniProt Q9UK32)",0.872
6,"GRK5, construct: Full length (from UniProt P34947)",1.55
7,"TTK, construct: Full length (from UniProt P33981)",1.12
8,"PRPF4B, construct: aa519-end (from UniProt Q13523)",0.969

# Same assay, conditions: Y fixed; at -2
row,Substance,relative phosphorylation
1,"PAK3, construct: Full length (from UniProt O75914)",0.747
2,"MASTL, construct: Full length (from UniProt Q96GX5)",1.9
3,"MELK, construct: aa1-340 (from UniProt Q14680)",1.33
4,"CLK3, construct: Full length (from UniProt P49761)",0.435
5,"RPS6KA6, construct: Full length (from UniProt Q9UK32)",0.424
